# Measurements from patent US20230365641A1 (XILIO DEVELOPMENT, published 2023).
# How the values were obtained:
# [1] = molecular target: T1, PD-1 shown on cells (Raji-PD-1 cells); CD3/CD28 activated human CD8+ T cells; PD-1 effector cells of the … (human, UniProt Q15116 25-288); experiment: flow cytometry on CD3+CD8+ T cells within CD3/CD28 activated human PBMCs, 1 h at 4 C, anti-human IgG PE, % anti-hIgG+; table CD8+ T cells under the graph
# T1 construct: whole, on cells; Human is stated for the PBMCs; also called hPD-1; PD1 expressing Raji cells
# T1 sequence (Q15116 25-288): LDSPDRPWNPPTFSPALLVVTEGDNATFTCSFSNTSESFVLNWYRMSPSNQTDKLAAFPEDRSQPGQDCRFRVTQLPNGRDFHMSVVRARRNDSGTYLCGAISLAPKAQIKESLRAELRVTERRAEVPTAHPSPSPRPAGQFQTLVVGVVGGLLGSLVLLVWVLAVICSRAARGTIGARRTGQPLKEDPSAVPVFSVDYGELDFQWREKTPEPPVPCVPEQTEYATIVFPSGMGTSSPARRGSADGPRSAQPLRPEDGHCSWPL
# Description: Mixed donor lots of human peripheral blood mononuclear cells (PBMCs) were thawed and seeded in medium (RPMI1640, 10% fetal bovine serum (FBS), 2 mM 1-Glutamine, 50 U/mL penicillin, 50 μg/mL streptomycin, 1 μM each of non-essential amino acids, 10 mM HEPES, 1 mM sodium pyruvate, 55 μM B-mercaptoethanol, 10 μg/mL gentamycin) into tissue culture treated plates that were coated for 1 h at 37° C. with 1 μg/ml anti-CD3. Anti-CD28 was added in solution at a concentration of 5 μg/ml. Two days later the PBMCs were collected and transferred into a 96 well v-bottom plate at 100,000 cells per well in FACS Buffer (2% FBS in phosphate buffered saline (PBS)). Test articles were diluted to twice the indicated concentration in FACS buffer. Test articles were added to cells at a 1:1 ratio to the final concentration indicated in the figure and incubated for 1 h at 4° C. The cells were washed three times with FACS buffer and fixed in 4% PFA. Cells were then washed once in FACS buffer. All cells were stained in 100 μL of indicated molecules in FACS buffer for 1 h at 4° C. The cells were washed three times with FACS buffer and fixed in 4% paraformaldehyde (PFA). All cells were subsequently stained in 100 μL with anti-human IgG PE, anti-CD3 PE/Dazzle 594, anti-CD45 PerCP Cy5.5, anti-CD8 BV510, and anti-CD4 BV421 for 30 minutes. Cells were washed twice to remove unbound antibody and analyzed on the BD Celesta by gating on CD3+CD8+ T cells.
# [2] = molecular target: PD-1 (antigen of the ELISA and of the in vitro affinity measurement) (UniProt Q15116 25-167, limits assumed); experiment: kinetic binding table: TC3 captured as ligand (capture level 78.1 RU), hPD1-his as sample; method not given
# PD-1 (antigen of the ELISA and of the in vitro affinity measurement), sequence (Q15116 25-167 limits assumed): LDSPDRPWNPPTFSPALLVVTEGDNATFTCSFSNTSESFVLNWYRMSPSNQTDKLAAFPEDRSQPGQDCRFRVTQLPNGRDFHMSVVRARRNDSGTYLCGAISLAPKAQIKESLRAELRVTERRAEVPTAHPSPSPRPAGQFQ
Binder,EC50 [1],Kd [2],koff [2],kon [2]
"TC3 (Fc fusion, Bivalent anti-PD-1 Fab) heavy 1: QVQLVQSGVEVKKPGASVKVSCKASGYTFTNYYMYWVRQAPGQGLEWMGGINPSNGGTNFNEKFKNRVTLTTDSSTTTAYMELKSLQFDDTAVYYCARRDYRFDMGFDYWGQGTTVTVSSASTKGPSVFPLAPSSKSTSGGTAALGCLVKDYFPEPVTVSWNSGALTSGVHTFPAVLQSSGLYSLSSVVTVPSSSLGTQTYICNVNHKPSNTKVDKKVEPKSCDKTHTCPPCPAPELLGGPSVFLFPPKPKDTLMISRTPEVTCVVVDVSHEDPEVKFNWYVDGVEVHNAKTKPREEQYASTYRVVSVLTVLHQDWLNGKEYKCKVSNKALPAPIEKTISKAKGQPREPQVYTLPPCRDELTKNQVSLWCLVKGFYPSDIAVEWESNGQPENNYKTTPPVLDSDGSFFLYSKLTVDKSRWQQGNVFSCSVMHEALHNRFTQKSLSLSPGGGSSPPGGGSSGGGSGPAPTSSSTKKTQLQLEHLLLDLQMILNGINNYKNPKLTAMLTAKFAMPKKATELKHLQCLEEALKPLEEVLNLAQSKNFHLRPRDLISNINVIVLELKGSETTFMCEYADETATIVEFLNRWITFAQSIISTLT heavy 2: QVQLVQSGVEVKKPGASVKVSCKASGYTFTNYYMYWVRQAPGQGLEWMGGINPSNGGTNFNEKFKNRVTLTTDSSTTTAYMELKSLQFDDTAVYYCARRDYRFDMGFDYWGQGTTVTVSSASTKGPSVFPLAPSSKSTSGGTAALGCLVKDYFPEPVTVSWNSGALTSGVHTFPAVLQSSGLYSLSSVVTVPSSSLGTQTYICNVNHKPSNTKVDKKVEPKSCDKTHTCPPCPAPELLGGPSVFLFPPKPKDTLMISRTPEVTCVVVDVSHEDPEVKFNWYVDGVEVHNAKTKPREEQYASTYRVVSVLTVLHQDWLNGKEYKCKVSNKALPAPIEKTISKAKGQPREPQVCTLPPSRDELTKNQVSLSCAVKGFYPSDIAVEWESNGQPENNYKTTPPVLDSDGSFFLVSKLTVDKSRWQQGNVFSCSVMHEALHNHYTQKSLSLSPGGPPSGSSPMPYDLYHPSGGGAVNGTSQFTCFYNSRANISCVWSQDGALQDTSCQVHAWPDRRRWNQTCELLPVSQASWACNLILGAPDSQKLTTVDIVTLRVLCREGVRWRVMAIQDFKPFENLRLMAPISLQVVHVETHRSNISWEISQASHYFERHLEFEARTLSPGHTWEEAPLLTLKQKQEWISLETLTPDTQYEFQVRVKPLQGEFTTWSPWSQPLAFRTKPAALGKD light: EIVLTQSPATLSLSPGERATLSCRASKGVSTSGYSYLHWYQQKPGQAPRLLIYLASYLESGVPARFSGSGSGTDFTLTISSLEPEDFAVYYCQHSRDLPLTFGGGTKVEIKRTVAAPSVFIFPPSDEQLKSGTASVVCLLNNFYPREAKVQWKVDNALQSGNSQESVTEQDSKDSTYSLSSTLTLSKADYEKHKVYACEVTHQGLSSPVTKSFNRGEC",0.1 nM,7.11 nM,0.00328 s⁻¹,461000 M⁻¹ s⁻¹
"TC24 (Fc fusion, Mask CD122 (C122S, C168S)) heavy 1: QVQLVQSGVEVKKPGASVKVSCKASGYTFTNYYMYWVRQAPGQGLEWMGGINPSNGGTNFNEKFKNRVTLTTDSSTTTAYMELKSLQFDDTAVYYCARRDYRFDMGFDYWGQGTTVTVSSASTKGPSVFPLAPSSKSTSGGTAALGCLVKDYFPEPVTVSWNSGALTSGVHTFPAVLQSSGLYSLSSVVTVPSSSLGTQTYICNVNHKPSNTKVDKKVEPKSCDKTHTCPPCPAPELLGGPSVFLFPPKPKDTLMISRTPEVTCVVVDVSHEDPEVKFNWYVDGVEVHNAKTKPREEQYASTYRVVSVLTVLHQDWLNGKEYKCKVSNKALPAPIEKTISKAKGQPREPQVYTLPPCRDELTKNQVSLWCLVKGFYPSDIAVEWESNGQPENNYKTTPPVLDSDGSFFLYSKLTVDKSRWQQGNVFSCSVMHEALHNRFTQKSLSLSPGGGSSPPGGGSSGGGSGPAPTSSSTKKTQLQLEHLLLDLQMILNGINNYKNPKLTAMLTAKFAMPKKATELKHLQCLEEALKPLEEVLNLAQSKNFHLRPRDLISNINVIVLELKGSETTFMCEYADETATIVEFLNRWITFAQSIISTLT heavy 2: QVQLVQSGVEVKKPGASVKVSCKASGYTFTNYYMYWVRQAPGQGLEWMGGINPSNGGTNFNEKFKNRVTLTTDSSTTTAYMELKSLQFDDTAVYYCARRDYRFDMGFDYWGQGTTVTVSSASTKGPSVFPLAPSSKSTSGGTAALGCLVKDYFPEPVTVSWNSGALTSGVHTFPAVLQSSGLYSLSSVVTVPSSSLGTQTYICNVNHKPSNTKVDKKVEPKSCDKTHTCPPCPAPELLGGPSVFLFPPKPKDTLMISRTPEVTCVVVDVSHEDPEVKFNWYVDGVEVHNAKTKPREEQYASTYRVVSVLTVLHQDWLNGKEYKCKVSNKALPAPIEKTISKAKGQPREPQVCTLPPSRDELTKNQVSLSCAVKGFYPSDIAVEWESNGQPENNYKTTPPVLDSDGSFFLVSKLTVDKSRWQQGNVFSCSVMHEALHNHYTQKSLSLSPGGGSSGPVPLSLYSGSGGGAVNGTSQFTCFYNSRANISCVWSQDGALQDTSCQVHAWPDRRRWNQTCELLPVSQASWACNLILGAPDSQKLTTVDIVTLRVLCREGVRWRVMAIQDFKPFENLRLMAPISLQVVHVETHRSNISWEISQASHYFERHLEFEARTLSPGHTWEEAPLLTLKQKQEWISLETLTPDTQYEFQVRVKPLQGEFTTWSPWSQPLAFRTKPAALGKD light: EIVLTQSPATLSLSPGERATLSCRASKGVSTSGYSYLHWYQQKPGQAPRLLIYLASYLESGVPARFSGSGSGTDFTLTISSLEPEDFAVYYCQHSRDLPLTFGGGTKVEIKRTVAAPSVFIFPPSDEQLKSGTASVVCLLNNFYPREAKVQWKVDNALQSGNSQESVTEQDSKDSTYSLSSTLTLSKADYEKHKVYACEVTHQGLSSPVTKSFNRGEC",0.1 nM,,,
"TC47 (Fc fusion, Mask CD122 (C122A, N123C)) heavy 1: QVQLVQSGVEVKKPGASVKVSCKASGYTFTNYYMYWVRQAPGQGLEWMGGINPSNGGTNFNEKFKNRVTLTTDSSTTTAYMELKSLQFDDTAVYYCARRDYRFDMGFDYWGQGTTVTVSSASTKGPSVFPLAPSSKSTSGGTAALGCLVKDYFPEPVTVSWNSGALTSGVHTFPAVLQSSGLYSLSSVVTVPSSSLGTQTYICNVNHKPSNTKVDKKVEPKSCDKTHTCPPCPAPELLGGPSVFLFPPKPKDTLMISRTPEVTCVVVDVSHEDPEVKFNWYVDGVEVHNAKTKPREEQYASTYRVVSVLTVLHQDWLNGKEYKCKVSNKALPAPIEKTISKAKGQPREPQVYTLPPCRDELTKNQVSLWCLVKGFYPSDIAVEWESNGQPENNYKTTPPVLDSDGSFFLYSKLTVDKSRWQQGNVFSCSVMHEALHNRFTQKSLSLSPGGGSSPPGGGSSGGGSGPAPTSSSTKKTQLQLEHLLLDLQMILNGINNYKNPKLTAMLTAKFAMPKKATELKHLQCLEEALKPLEEVLNLAQSKNFHLRPRDLISNINVIVLELKGSETTFMCEYADETATIVEFLNRWITFAQSIISTLT heavy 2: QVQLVQSGVEVKKPGASVKVSCKASGYTFTNYYMYWVRQAPGQGLEWMGGINPSNGGTNFNEKFKNRVTLTTDSSTTTAYMELKSLQFDDTAVYYCARRDYRFDMGFDYWGQGTTVTVSSASTKGPSVFPLAPSSKSTSGGTAALGCLVKDYFPEPVTVSWNSGALTSGVHTFPAVLQSSGLYSLSSVVTVPSSSLGTQTYICNVNHKPSNTKVDKKVEPKSCDKTHTCPPCPAPELLGGPSVFLFPPKPKDTLMISRTPEVTCVVVDVSHEDPEVKFNWYVDGVEVHNAKTKPREEQYASTYRVVSVLTVLHQDWLNGKEYKCKVSNKALPAPIEKTISKAKGQPREPQVCTLPPSRDELTKNQVSLSCAVKGFYPSDIAVEWESNGQPENNYKTTPPVLDSDGSFFLVSKLTVDKSRWQQGNVFSCSVMHEALHNHYTQKSLSLSPGGGSSGPVPLSLYSGSGGGAVNGTSQFTCFYNSRANISCVWSQDGALQDTSCQVHAWPDRRRWNQTCELLPVSQASWACNLILGAPDSQKLTTVDIVTLRVLCREGVRWRVMAIQDFKPFENLRLMAPISLQVVHVETHRACISWEISQASHYFERHLEFEARTLSPGHTWEEAPLLTLKQKQEWICLETLTPDTQYEFQVRVKPLQGEFTTWSPWSQPLAFRTKPAALGKD light: EIVLTQSPATLSLSPGERATLSCRASKGVSTSGYSYLHWYQQKPGQAPRLLIYLASYLESGVPARFSGSGSGTDFTLTISSLEPEDFAVYYCQHSRDLPLTFGGGTKVEIKRTVAAPSVFIFPPSDEQLKSGTASVVCLLNNFYPREAKVQWKVDNALQSGNSQESVTEQDSKDSTYSLSSTLTLSKADYEKHKVYACEVTHQGLSSPVTKSFNRGEC",0.1 nM,,,
